Consider one protein from article PMC11847488, “Hydroxycinnamoyl-coenzyme A: tetrahydroxyhexanedioate hydroxycinnamoyl transferase (HHHT) from Phaseolus vulgaris L.: phylogeny, expression pattern, kinetic parameters, and active site analysis” (PeerJ, 2025).

Holding throughout (assay): purified protein
Type in all cases: biochemical, Phaseolus vulgaris

Substrate in series [1]: CC(C)(COP(=O)(O)OP(=O)(O)OC[C@H]1O[C@@H](n2cnc3c(N)ncnc32)[C@H](O)[C@@H]1OP(=O)(O)O)[C@@H](O)C(=O)NCCC(=O)NCCSC(=O)/C=C/c1ccc(O)c(O)c1
The settings on record: co-substrate saccharic acid 20 mM, 100 mM sodium phosphate, pH 7.5, 1 mM EDTA, 25 °C.

Substrate in series [2]: COc1cc(/C=C/C(=O)SCCNC(=O)CCNC(=O)[C@H](O)C(C)(C)COP(=O)(O)OP(=O)(O)OC[C@H]2O[C@@H](n3cnc4c(N)ncnc43)[C@H](O)[C@@H]2OP(=O)(O)O)ccc1O
The note with it: co-substrate saccharic acid 20 mM, 100 mM sodium phosphate, pH 7.5, 1 mM EDTA, 25 °C.

Substrate in series [3]: CC(C)(COP(=O)(O)OP(=O)(O)OC[C@H]1O[C@@H](n2cnc3c(N)ncnc32)[C@H](O)[C@@H]1OP(=O)(O)O)[C@@H](O)C(=O)NCCC(=O)NCCSC(=O)/C=C/c1ccc(O)cc1
The note with it: co-substrate saccharic acid 20 mM, 100 mM sodium phosphate, pH 7.5, 1 mM EDTA, 25 °C.

Substrate in series [4]: O=C(O)[C@@H](O)[C@H](O)[C@H](O)[C@@H](O)C(=O)O
The note with it: co-substrate p-coumaroyl-CoA 100 μM, 100 mM sodium phosphate, pH 7.5, 1 mM EDTA, 25 °C.

Substrate in series [5]: O=C(O)[C@@H](O)[C@@H](O)[C@H](O)[C@@H](O)C(=O)O
The note with it: co-substrate p-coumaroyl-CoA 100 μM, 100 mM sodium phosphate, pH 7.5, 1 mM EDTA, 25 °C.

B1: HHHT (PvHHHT) (Phaseolus vulgaris) (protein)
chain: MVTIVASYRVLPCEETPKGHLWLADSDQVVRSGHTPTFYVYQAKHNHDTNERLRKSLGEILVHYYPVAGRLSLAEDARIQLDCNAKGVTFIEAETTKSMADYGDFSPGVVAELVPKIDYTQPVEEIPLMLVQSTRLPGGNGFVIGLAVCHVLSDGLGSIQFINSWAKLGRGETLEPHELPYLDRTVLKHQHSSTSPSPCFDHPELKPLPLKLGSSDINAEQKKKTRAVLLKLTRQQVEKLKKEANEQPLQEGVRAYSRFEALAGHIWRSASKARELEEKQPTVVRFNADIRSRVIPPLPKNYYGNALAATVTPKCYVGEIVSKPLSYAAQKVREAIEKLTNEYIRSQLKNVLGEEQLDCIRRLFMGEGERRNVPFAGNPNLHITSWMSMPLYEADFGWGKPVNFGLAYVFAQDRAVIILSPHGDGSIVISMTFQEEHLELFKKFFYETI
notes: full length, N-terminal 6xHis tag (pET28a(+)), codon-optimized, E. coli Rosetta 2 (DE3) pLysS, IMAC purified; tag cleavage not mentioned
Usually Km stands for the concentration of substrate that gives half-maximal velocity. By kcat is commonly meant the number of substrate molecules converted per active site and unit of time at saturation. A word on the kcat/Km: it is the turnover number divided by the Michaelis constant. For the protein B1, the Michaelis-Menten constant (Km) in the series “purified protein [1]” was 5.8 ± 0.4 µM; in the series “purified protein [2]” it was 9.6 ± 0.4 µM; in “purified protein [3]” it was 7.2 ± 0.5 µM; in “purified protein [4]”, 4,400 ± 700 μM; in “purified protein [5]” it was 5,200 ± 500 μM. Besides, the kcat in the series “purified protein [1]” worked out at 3.4 ± 0.1 s⁻¹; in the series “purified protein [2]”, 6 ± 0.1 s⁻¹; in “purified protein [3]” it was 5.9 ± 0.1 s⁻¹; in “purified protein [4]” it was 1.5 ± 0.1 s⁻¹; in “purified protein [5]”, 6.4 ± 0.2 s⁻¹. Further, the kcat/Km is 590000 ± 40000 M⁻¹ s⁻¹ in the series “purified protein [1]”; 630000 ± 20000 M⁻¹ s⁻¹ in the series “purified protein [2]”; 820000 ± 60000 M⁻¹ s⁻¹ in “purified protein [3]”; 340 ± 50 M⁻¹ s⁻¹ in “purified protein [4]”; 1200 ± 100 M⁻¹ s⁻¹ in the series “purified protein [5]”.
